Legend:
[1] = molecular target: T1, human PSMA on prostate cancer cell lines (22RV1, C4-2B) (human, UniProt Q04609 1-750); assay: flow cytometry on 22RV1 cells
T1 construct: also called PSMA-expressing cell lines
Protocol: (§1) 22RV1 and C4-2B cells were plated at 50,000 cells per well in 50 μl of assay medium (RPMI, 10% HI FBS) in V bottom plates. Serial dilutions of antibodies were prepared in assay medium with 50 μl of antibody dilutions added to the plates containing cells. The plates were incubated for 60 min at 37° C. at which time 100 μl of staining buffer (Becton Dickinson Cat #554657) was added to all wells of each plate. The plates were centrifuged at 300×G for 5 minutes and the medium was removed from the wells. 200 μl of staining buffer was added to all wells of each plate. The plates were centrifuged at 300× G for 5 minutes and the medium was removed from the wells. 50 μl of 2 μg/ml AlexaFluor647-labeled goat anti-human Fc was added to all wells of the plates and the plates were incubated for 30 minutes at 4° C. 150 μl of staining buffer was added to all wells of each plate. The plates were centrifuged at 300× G for 5 minutes and the medium was removed from the wells.

recombinant human PSMA = molecular target: T2, recombinant human PSMA (human, UniProt Q04609 44-750); assay: SPR (Biacore 8K), antibody captured on anti-Fc, PSMA in solution
T2 construct: also called hu PSMA; prostate-specific membrane antigen
Protocol: The binding affinity of anti-PSMA to the recombinant human, cynomolgus or mouse PSMA was determined by surface plasmon resonance (SPR) using a Biacore 8K instrument\. […] The association and dissociation were monitored for 3 and 15 minutes, respectively, using a flow rate of 50 μL/min. Raw binding data was referenced by subtracting the analyte binding signals from blanks and analyzed using a 1:1 Langmuir binding model using the Biacore Insight evaluation software to obtain the kinetics which were used to calculate the binding affinity. The anti-PSMA were captured using an anti-human Fc antibody and the antigens were injected in solution.

[2] = molecular target: T1, human PSMA on prostate cancer cell …; assay: flow cytometry on C4-2B cells
Protocol: as §1

T1 sequence (Q04609 whole entry): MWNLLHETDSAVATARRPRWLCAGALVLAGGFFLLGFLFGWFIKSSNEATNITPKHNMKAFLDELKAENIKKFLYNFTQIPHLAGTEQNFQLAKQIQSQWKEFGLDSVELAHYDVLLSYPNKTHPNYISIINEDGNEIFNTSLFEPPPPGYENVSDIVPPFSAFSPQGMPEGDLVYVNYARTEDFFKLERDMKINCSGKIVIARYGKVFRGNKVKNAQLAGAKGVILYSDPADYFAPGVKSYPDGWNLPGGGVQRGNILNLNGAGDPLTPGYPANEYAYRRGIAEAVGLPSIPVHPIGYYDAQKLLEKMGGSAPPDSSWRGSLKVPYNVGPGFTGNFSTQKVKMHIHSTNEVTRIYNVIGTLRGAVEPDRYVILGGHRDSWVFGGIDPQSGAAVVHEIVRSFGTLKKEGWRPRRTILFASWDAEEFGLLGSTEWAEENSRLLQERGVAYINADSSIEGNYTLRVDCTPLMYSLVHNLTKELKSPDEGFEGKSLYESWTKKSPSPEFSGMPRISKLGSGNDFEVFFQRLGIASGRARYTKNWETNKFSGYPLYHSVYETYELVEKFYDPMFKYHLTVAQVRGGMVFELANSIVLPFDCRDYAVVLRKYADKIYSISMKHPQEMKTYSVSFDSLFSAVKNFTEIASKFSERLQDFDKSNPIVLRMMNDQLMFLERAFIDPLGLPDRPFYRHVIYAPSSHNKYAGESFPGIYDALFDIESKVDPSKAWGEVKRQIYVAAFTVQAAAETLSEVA
T2 sequence (Q04609 44-750 limits assumed): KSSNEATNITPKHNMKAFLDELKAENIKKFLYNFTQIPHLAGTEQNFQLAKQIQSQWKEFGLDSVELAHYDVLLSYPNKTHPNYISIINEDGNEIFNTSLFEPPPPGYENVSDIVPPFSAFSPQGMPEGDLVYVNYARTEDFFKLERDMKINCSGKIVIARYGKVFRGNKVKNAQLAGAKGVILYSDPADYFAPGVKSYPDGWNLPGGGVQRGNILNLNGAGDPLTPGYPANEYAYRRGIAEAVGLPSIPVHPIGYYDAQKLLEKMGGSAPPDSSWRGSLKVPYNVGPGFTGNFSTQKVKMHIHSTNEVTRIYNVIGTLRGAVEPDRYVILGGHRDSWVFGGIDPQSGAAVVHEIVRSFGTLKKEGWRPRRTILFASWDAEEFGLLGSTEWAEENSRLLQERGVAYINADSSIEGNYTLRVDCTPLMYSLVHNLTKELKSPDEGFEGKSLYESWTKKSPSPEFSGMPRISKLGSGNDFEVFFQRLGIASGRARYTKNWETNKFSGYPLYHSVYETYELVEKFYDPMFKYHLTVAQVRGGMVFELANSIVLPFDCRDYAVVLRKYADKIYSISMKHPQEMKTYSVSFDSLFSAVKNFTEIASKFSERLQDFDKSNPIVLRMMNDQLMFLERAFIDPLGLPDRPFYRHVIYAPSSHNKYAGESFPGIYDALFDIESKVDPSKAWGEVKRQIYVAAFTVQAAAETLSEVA

EC50 [1] [nM]	Kd (recombinant human PSMA) [nM]	EC50 [2] [nM]	Binder
3.42	≤ 0.24	4.56	PS3B913 (bispecific antibody, human IgG1, lambda, L234A L235A, FAB-A: CD3B891 (CD3B376 - K477); FAB-B: PSMB891) heavy 1: QVQLQQSGPRLVRPSQTLSLTCAISGDSVFNNNAAWSWIRQSPSRGLEWLGRTYYRSKWLYDYAVSVKSRITVNPDTSRNQFTLQLNSVTPEDTALYYCARGYSSSFDYWGQGTLVTVSSASTKGPSVFPLAPSSKSTSGGTAALGCLVKDYFPEPVTVSWNSGALTSGVHTFPAVLQSSGLYSLSSVVTVPSSSLGTQTYICNVNHKPSNTKVDKKVEPKSCDKTHTCPPCPAPEAAGGPSVFLFPPKPKDTLMISRTPEVTCVVVSVSHEDPEVKFNWYVDGVEVHNAKTKPREEQYNSTYRVVSVLTVLHQDWLNGKEYKCKVSNKALPAPIEKTISKAKGQPREPQVYTLPPSREEMTKNQVSLTCLVKGFYPSDIAVEWESNGQPENNYKTTPPVLDSDGSFLLYSKLTVDKSRWQQGNVFSCSVMHEALHNHYTQKSLSLSPG light 1: QSALTQPASVSGSPGQSITISCTGTSSNIGTYKFVSWYQQHPDKAPKVLLYEVSKRPSGVSSRFSGSKSGNTASLTISGLQAEDQADYHCVSYAGSGTLLFGGGTKLTVLGQPKAAPSVTLFPPSSEELQANKATLVCLISDFYPGAVTVAWKADSSPVKAGVETTTPSKQSNNKYAASSYLSLTPEQWKSHRSYSCQVTHEGSTVEKTVAPTECS heavy 2: not shown light 2: not shown
60	–	60	PS3B931 (bispecific antibody, human IgG1, kappa, lambda, L234A L235A, FAB-A: CD3B2183 (CD3W245); FAB-B: PSMB890) heavy 1: EVQLVESGGGLVKPGGSLRLSCAASGFTFSRYNMNWVRQAPGKGLEWVSSISTSSNYIYYADSVKGRFTFSRDNAKNSLDLQMSGLRAEDTAIYYCTRGWGPFDYWGQGTLVTVSSASTKGPSVFPLAPSSKSTSGGTAALGCLVKDYFPEPVTVSWNSGALTSGVHTFPAVLQSSGLYSLSSVVTVPSSSLGTQTYICNVNHKPSNTKVDKKVEPKSCDKTHTCPPCPAPEAAGGPSVFLFPPKPKDTLMISRTPEVTCVVVSVSHEDPEVKFNWYVDGVEVHNAKTKPREEQYNSTYRVVSVLTVLHQDWLNGKEYKCKVSNKALPAPIEKTISKAKGQPREPQVYTLPPSREEMTKNQVSLTCLVKGFYPSDIAVEWESNGQPENNYKTTPPVLDSDGSFLLYSKLTVDKSRWQQGNVFSCSVMHEALHNHYTQKSLSLSP light 1: DIQMTQSPSSLSASVGDRVTITCRARQSIGTAIHWYQQKPGKAPKLLIKYASESISGVPSRFSGSGSGTDFTLTISSLQPEDFATYYCQQSGSWPYTFGQGTKLEIKRTVAAPSVFIFPPSDEQLKSGTASVVCLLNNFYPREAKVQWKVDNALQSGNSQESVTEQDSKDSTYSLSSTLTLSKADYEKHKVYACEVTHQGLSSPVTKSFNRGEC heavy 2: EVQLVESGGGLVKPGGSLRLSCAASGFTFSRYNMNWVRQAPGKGLEWVSSINSNSRYIYYADSVKGRFTISRDSAKNSLYLQMNSLRAEDTAVYYCAKTMGDYYYYYGMDVWGQGTTVTVSSASTKGPSVFPLAPSSKSTSGGTAALGCLVKDYFPEPVTVSWNSGALTSGVHTFPAVLQSSGLYSLSSVVTVPSSSLGTQTYICNVNHKPSNTKVDKKVEPKSCDKTHTCPPCPAPEAAGGPSVFLFPPKPKDTLMISRTPEVTCVVVSVSHEDPEVKFNWYVDGVEVHNAKTKPREEQYNSTYRVVSVLTVLHQDWLNGKEYKCKVSNKALPAPIEKTISKAKGQPREPQVYTLPPSREEMTKNQVSLTCLVKGFYPSDIAVEWESNGQPENNYKTTPPVLDSDGSFFLYSRLTVDKSRWQQGNVFSCSVMHEALHNHYTQKSLSLSPG light 2: SSELTQPPSVSGAPGQRVTISCAGSLSNIGAGYDVHWYQQLPGTAPKLLIYGNINRLSGVPERFSGSKSGTSASLAITGLQAEDGADYYCQSYDSSLSSYVFGTGTKVTVLGQPKAAPSVTLFPPSSEELQANKATLVCLISDFYPGAVTVAWKADSSPVKAGVETTTPSKQSNNKYAASSYLSLTPEQWKSHRSYSCQVTHEGSTVEKTVAPTECS

Source: patent publication US20250145711A1 (Janssen / Centocor, published 2025)
